According to the supplement of paper PMC5998384:

What was measured:
HeLa Kyoto [1] = assay: solubility in G1/S (NP-40 vs SDS abundance) (log2 ratio); higher = more soluble; settings: cell cycle stage: G1/S
HeLa Kyoto [2] = assay: melting temperature (median over replicates), in situ; higher = more thermally stable
HeLa Kyoto [3] = assay: solubility change mitosis vs G1/S (difference of NP-40 vs SDS log2 ratios) (log2 ratio difference); higher = more soluble in mitosis
HeLa Kyoto [4] = assay: thermal stability score vs G1/S (z-score of summed log2 fold changes over temperatures); higher = more thermally stable than in G1/S
[5] = cell cycle stage: early G1 (4.5 h after nocodazole release)
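For melting temperature (median over replicates), in situ in this document: HeLa Kyoto cells synchronized by double thymidine or nocodazole block, proteins quantified by TMT10plex mass spectrometry, three independent biological replicates.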
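For solubility change mitosis vs G1/S (difference of NP-40 vs SDS log2 ratios) in this document: synchronized HeLa Kyoto cells (double thymidine block for G1/S, nocodazole release for mitosis), protein amounts in NP-40 versus SDS lysates quantified by mass spectrometry, three biological replicates.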
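For solubility in G1/S (NP-40 vs SDS abundance) in this document: HeLa Kyoto cells arrested at G1/S by double thymidine block, proteins quantified by TMT10plex mass spectrometry in mild NP-40 versus SDS extracts, three biological replicates.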
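For thermal stability score vs G1/S (z-score of summed log2 fold changes over temperatures) in this document: synchronized HeLa Kyoto cells, proteins quantified by TMT10plex mass spectrometry, three biological replicates, mitosis taken 0.5 h after nocodazole release, G1/S directly after double thymidine block.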

| Sequence | solubility in G1/S (log2) (HeLa Kyoto [1]) | melting temperature (HeLa Kyoto [2]; cell cycle stage: G1/S) [°C] | melting temperature (HeLa Kyoto [2]; cell cycle stage: mitosis) [°C] | solubility change mitosis (log2) (HeLa Kyoto [3]) | thermal stability score (HeLa Kyoto [4]; [5]) | thermal stability score (HeLa Kyoto [4]; cell cycle stage: mitosis) |
| --- | --- | --- | --- | --- | --- | --- |
| MPKGGRKGGHKGRARQYTSPEEIDAQLQAEKQKAREEEEQKEGGDGAAGDPKKEKKSLDSDESEDEEDDYQQKRKGVEGLIDIENPNRVAQTTKKVTQLDLDGPKELSRREREEIEKQKAKERYMKMHLAGKTEQAKADLARLAIIRKQREEAARKKEEERKAKDDATLSGKRMQSLSLNK [PDAP1] | 0.734 | 57.9 | 54.2 | 0.473 | -6.85 | -6.55 |
| MPKHEFSVDMTCGGCAEAVSRVLNKLGGVKYDIDLPNKKVCIESEHSMDTLLATLKKTGKTVSYLGLE [ATOX1] | -0.375 | 54.8 | 52.8 | 0.149 | -3.27 | -2.04 |
| MPKPINVRVTTMDAELEFAIQPNTTGKQLFDQVVKTVGLREVWFFGLQYVDSKGYSTWLKLNKKVTQQDVKKENPLQFKFRAKFFPEDVSEELIQEITQRLFFLQVKEAILNDEIYCPPETAVLLASYAVQAKYGDYNKEIHKPGYLANDRLLPQRVLEQHKLTKEQWEERIQNWHEEHRGMLREDSMMEYLKIAQDLEMYGVNYFEIKNKKGTELWLGVDALGLNIYEHDDKLTPKIGFPWSEIRNISFNDKKFVIKPIDKKAPDFVFYAPRLRINKRILALCMGNHELYMRRRKPDTIEVQQMKAQAREEKHQKQLERAQLENEKKKREIAEKEKERIEREKEELMERLKQIEEQTIKAQKELEEQTRKALELDQERKRAKEEAERLEKERRAAEEAKSAIAKQAADQMKNQEQLAAELAEFTAKIALLEEAKKKKEEEATEWQHKAFAAQEDLEKTKEELKTVMSAPPPPPPPPVIPPTENEHDEHDENNAEASAELSNEGVMNHRSEEERVTETQKNERVKKQLQALSSELAQARDETKKTQNDVLHAENVKAGRDKYKTLRQIRQGNTKQRIDEFEAM [RDX] | 0.0601 | 57.1 | 56.4 | 0.0339 | 0.702 | 0.805 |
| MPKRKVSSAEGAAKEEPKRRSARLSAKPPAKVEAKPKKAAAKDKSSDKKVQTKGKRGAKGKQAEVANQETKEDLPAENGETKTEESPASDEAGEKEAKSD [HMGN1] | 0.0899 | 59 | 56.4 | 1.47 | -2.25 | -4.73 |
| MPKVKRSRKAPPDGWELIEPTLDELDQKMREAETEPHEGKRKVESLWPIFRIHHQKTRYIFDLFYKRKAISRELYEYCIKEGYADKNLIAKWKKQGYENLCCLRCIQTRDTNFGTNCICRVPKSKLEVGRIIECTHCGCRGCSG [BUD31] | -0.0954 | 51.1 | 50.9 | 0.184 | 1.19 | 0.411 |
| MPKVKSGAIGRRRGRQEQRRELKSAGGLMFNTGIGQHILKNPLIINSIIDKAALRPTDVVLEVGPGTGNMTVKLLEKAKKVVACELDPRLVAELHKRVQGTPVASKLQVLVGDVLKTDLPFFDTCVANLPYQISSPFVFKLLLHRPFFRCAILMFQREFALRLVAKPGDKLYCRLSINTQLLARVDHLMKVGKNNFRPPPKVESSVVRIEPKNPPPPINFQEWDGLVRITFVRKNKTLSAAFKSSAVQQLLEKNYRIHCSVHNIIIPEDFSIADKIQQILTSTGFSDKRARSMDIDDFIRLLHGFNAEGIHFS [DIMT1] | -0.509 | 54.2 | 53.2 | 0.276 | 0.644 | 1.74 |
| MPLFATNPFDQDVEKATSEMNTAEDWGLILDICDKVGQSRTGPKDCLRSIMRRVNHKDPHVAMQALTLLGACVSNCGKIFHLEVCSRDFASEVSNVLNKGHPKVCEKLKALMVEWTDEFKNDPQLSLISAMIKNLKEQGVTFPAIGSQAAEQAKASPALVAKDPGTVANKKEEEDLAKAIELSLKEQRQQSTTLSTLYPSTSSLLTNHQHEGRKVRAIYDFEAAEDNELTFKAGEIITVLDDSDPNWWKGETHQGIGLFPSNFVTADLTAEPEMIKTEKKTVQFSDDVQVETIEPEPEPAFIDEDKMDQLLQMLQSTDPSDDQPDLPELLHLEAMCHQMGPLIDEKLEDIDRKHSELSELNVKVMEALSLYTKLMNEDPMYSMYAKLQNQPYYMQSSGVSGSQVYAGPPPSGAYLVAGNAQMSHLQSYSLPPEQLSSLSQAVVPPSANPALPSQQTQAAYPNTMVSSVQGNTYPSQAPVYSPPPAATAAAATADVTLYQNAGPNMPQVPNYNLTSSTLPQPGGSQQPPQPQQPYSQKALL [STAM] | 0.292 | 50.3 | 52 | -0.163 | 0.119 | 0.654 |
